Among the data in paper PMC3516755 are Kd, koff and kon values, retold here.

The test deals with rGlu^1-hPg[S741A] (human). The test is described as follows: SPR. (In general: In SPR one partner is held on a chip, and binding of the other changes the refractive index at the surface.)

What is called Kd is a measure of binding affinity in units of concentration. The low end stands for a tighter complex, the high end for a looser complex. A word on the koff: it is the first-order rate constant of dissociation. A lower koff goes with a long-lived complex. In general, kon refers to a measure of how fast the partners come together. The low end stands for slow association, the high end for fast association. As for rSK_(NS88.2) (natural protein), the Kd worked out at 202 nM, the koff was found to be 0.00314 s⁻¹ and the kon turned out to be 15500 M⁻¹ s⁻¹.

rSK_(NS223) (natural protein) registered a Kd of 255 nM and a koff of 0.00178 s⁻¹.

The substance rSK_(NS210) (natural protein) had a koff of 0.00737 s⁻¹ and a kon of 302000 M⁻¹ s⁻¹.

Substance rSK_(NS931) (natural protein) had a koff of 0.00467 s⁻¹ and a kon of 375000 M⁻¹ s⁻¹.

Turning to rSK_(NS53) (natural protein), the koff stood at 0.00616 s⁻¹ and the kon worked out at 1.18e+06 M⁻¹ s⁻¹.

rSK_(AP53) (natural protein) registered a Kd of 321 nM and a koff of 0.00246 s⁻¹.

Consider rSK_(NS455) (natural protein), for which the Kd was found to be 232 nM, the koff came out at 0.00306 s⁻¹ and the kon is 13200 M⁻¹ s⁻¹.

Turning to rSK_(NZ131) (natural protein), the koff was 0.0087 s⁻¹ and the kon was determined as 1.02e+06 M⁻¹ s⁻¹.
